From the nanobody polyreactivity screen of Harvey et al. (2022) come the findings set out here.

The data set can be described thus: yeast display, Sf9 membrane polyspecificity reagent, FACS + sequencing; frameworks hold sequencing errors. Summed up:
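A nanobody's polyreactivity label depends on the gate it was sorted from. Yeast display cells were stained with 10% biotinylated, detergent-solubilized Sf9 membrane reagent for 1 hour at 4 °C, enriched on streptavidin microbeads and sorted by FACS. The low and high (top ~1%) gates were set on anti-HA fluorescence for expression and streptavidin fluorescence for reagent binding.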
Take “QVQLVESGGGIVQAGGSLRLSCAASGYIFDHYAMGWYRQAPGKERELVAAISRSAGSTYYADSVKGRFTISRDNAKNTVYLQMKSLKPEDTAVYYCNAVVAVRSWRKYEYWGQGTQVTVSS”: the “polyreactivity (PSR sort gate)” value was “high polyreactivity”.

Take “QVQLVESGGGIVQAGGSLRLSCASSGFTFNLYAMGWYRHAPGNERELVAAINWSGGTYYADSVKGRFTISRDNAKNNVYLQMKILKPEDTAVYYCNARYVYHSSFAGFDYWGQGTQVTVSS”: the “polyreactivity (PSR sort gate)” value was “low polyreactivity”.

Turning to “QVQLVESGGGIVQAGGSLRLSCASSGSIFYWYAMGWYRQAPGKERELVAAISRSGGSTYYADSVKGRFTISRDNAKNTVYLQMNSLKPEDTAVYYCATELSYRHGYWGQGTQVTVSS”, the “polyreactivity (PSR sort gate)” value is “high polyreactivity”.

With “QVQLVESGGGIVQAGGSLRLSCDASGRIIGYYAMGWYRQAPGKERELVAAISRSGARTYYADSVKGRFTISRDNAKNTVYLQMNSLKPEDTAVYYCAAGPAPGHDSWGQGTQVTVSS”, the “polyreactivity (PSR sort gate)” value is “high polyreactivity”.

Consider “QVQLVESGGGIVQAGGSLRLSCSASGRNSGVNAMGSYRQAPGKERELVATISGSGGRTYYADSVKERFTISRDNAKNTVYLQMNSLKPEDTAVYYCNTLVQRGGYFSRGFDYWGQGTQVTVSS”, for which the “polyreactivity (PSR sort gate)” value was “low polyreactivity”.

As to “QVQLVESGGGIVQAGGSLRLSFDASGFLFYSYAMGCYRQAPGKEREFVAAISWSGARTYYPDSVKGRFTISRDNAKNTVYLQMNSLKPEDTAVYYCIAVAFYPRSSRSWRLDYWGQGTQVTVSS”, the “polyreactivity (PSR sort gate)” value is given as “high polyreactivity”.

For the sequence “QVQLVESGGGIVQAGGSLRLSSAASGINFRYYAMGSSRPAPGKDRELVAVKSRDGTTYYADSVKGRFTISRDNAKNTVYLPMNSLKAADTAVYYCAKKAWVIYNRKFSSGYDYWGQGTQVNVSS”, the “polyreactivity (PSR sort gate)” value is given as “low polyreactivity”.

For “QVQLVESGGGIVQAGGSLRLSSAASGSIIFYYAMGWYRQPRGKEREFVAAITRSGVRTYYADSVKGRFTISRDNAKNTVYLQMNSLKPEDTAVYYCNDDYGFYRPVLMGFWGQGTQVTVSS”, the “polyreactivity (PSR sort gate)” value was “low polyreactivity”.

Consider “QVQLVESGGGIVQAGGSLRLTCAASGFIFWDYAMGWYRQAPGKERELVAAISDSGGDTYYADSVKGRFTISRDNAKNTVYLQMNSLNPEDTAVYYCASVVELWVFRGQQYDYWGQGTQVTVSS”, for which the “polyreactivity (PSR sort gate)” value was “low polyreactivity”.

With “QVQLVESGGGIVQAGGSLRLTCAASGRIFAWYAMGWYRQAPWKERELVASITWGGGRTYYADSVKGRFTISRDNAKNTVYLQMNCLKPEVTAVYYCAAYRYKEEAYLGVAQERDYWGQGTLVTVSS”, the “polyreactivity (PSR sort gate)” value is reported as “low polyreactivity”.

On to “QVQLVESGGGIVQARGSLRLSCAASGRIFAPYAMGWYRQAPGKERELVAAIRISGDSTYYADSVKGRFTISRDNAKNTVYLQMNSLKPHDTAVYYCAAEYYILHWFGYAGYPAYNYWGQGTQVTVSS”, for which the “polyreactivity (PSR sort gate)” value is listed as “high polyreactivity”.

Turning to “QVQLVESGGGIVQEGGSLRLSCAASGRTFNRYAMGWYRQAPGKERELVAAISWSGGRTYYADSVKGRFTISRDNAKNTVYLQMNSLIPEGTAVYYCAKEAYIRYDYWGQGTQVTVSS”, the “polyreactivity (PSR sort gate)” value was “low polyreactivity”.

Take “QVQLVESGGGIVQSGGSLRLSCAASGSIFQPYAMGWYRQAPGQEREFVAAISRSGGITYYADSVKGRFTISRDNAKNTVYLQMYSLKPEDTAVYYCATGRQVVRSYSEGDYWGQGTQVTLSS”: the “polyreactivity (PSR sort gate)” value is reported as “low polyreactivity”.

For the sequence “QVQLVESGGGKVQAGGSLRLICAASGSTFSSYAMGWYRQAPGKERELVAGISRGGSSTDYADSVKGRFTISRDNAKNTVYLQMNSLKPEDPAVYYCNAKVWWSFNGLEYDYWGQGTQVTVSS”, the “polyreactivity (PSR sort gate)” value is “low polyreactivity”.

“QVQLVESGGGKVQAGGSLRLSCAASGFIFRYYAMGWYRQAPGKERELGAAISKRGGSTYYADSVKGRFTISRDNAKNTVYLQMNSLKADDTAVYYCARGYPIDPSFDTYDYWGQGTQVTVSS”: the “polyreactivity (PSR sort gate)” value was “high polyreactivity”.

Regarding “QVQLVESGGGKVQAGGSLRLSCASSGFTYDSNAMGSYRQAPGKERELVAAISTGGSTYYADSVKGPFTISRDNANITVYLQMYSLKPEDTAVYYCARDPPYPDTWYGYWGQGTQVTVSS”, the “polyreactivity (PSR sort gate)” value is reported as “low polyreactivity”.

On to “QVQLVESGGGLAQAGCSLRLSCAASGRLFRGNAMGGYRQAPGKERELVARITGNDGDTYYADSVKGRFTISRDNAKNTVYLQMNSLKPEDTAVYYCATDTSSYRRRYYYWGQGTQVTVSS”, for which the “polyreactivity (PSR sort gate)” value is “low polyreactivity”.

On to “QVQLVESGGGLAQAGGSLRLSCAASGRTFVTNAMGWYRQAPGKERELVAAISKSGGRTYYADSVKGRFTISRDNAKNTVYLQMNSLKPEDTAVYYCAADKRYLSYDYWGQGTQVTVSS”, for which the “polyreactivity (PSR sort gate)” value was “high polyreactivity”.

As for “QVQLVESGGGLAQAGGSLRLTCAASGSTFQIYAMGWYRPAPGKERELVAAITSSSSTNYADSVKGRFTISRDNAKNTVYLQMNRLKPEDTAVYYCAADVSWRSNWYDYWGLGTQVTVSS”, the “polyreactivity (PSR sort gate)” value was “low polyreactivity”.

Turning to “QVQLVESGGGLDHAGGSLRLSCAASGFIFTPNAMGMYRQAPAKEREWVAAITSGGVTYYADSVKGRFTISRDNAKNTVYIQMNSLKPEGTAVYYCKKNHTGTVRDSIYGYWGQGNQVTVSS”, the “polyreactivity (PSR sort gate)” value is reported as “high polyreactivity”.

As for “QVQLVESGGGLDHAGGSLRLSCAASGITFKRYAMGWYRQAPGKERELVAAISDIGGRTYYADSVKGRFTISRDNAKNTVYLQMNSLKPEDTAVYYCAADYYSPVDWYYYWGQGTQVTVSS”, the “polyreactivity (PSR sort gate)” value is “high polyreactivity”.

As to “QVQLVESGGGLDQAGGRLPLTCAASGLIFYDNMGWYRHAPGKERELVAAISSSGGSTSYADSVKGRFTISRDNAKNTVFLQMICLKPEDTAVYYCAADSYPAYLGFVGFDYWGQGTIVTVSS”, the “polyreactivity (PSR sort gate)” value was “low polyreactivity”.

Take “QVQLVESGGGLDQAGGRLRLSCAASGITVGYNDMGRYRQARGKERELVAAINRGASTNYADSVKGRFTISRDNAKNTVYFQMNCLKPEDTAVYYCNADHRDTFIWVGLPHMDYWGQGTQVTVSS”: the “polyreactivity (PSR sort gate)” value is recorded as “low polyreactivity”.

Consider “QVQLVESGGGLDQAGGSHRLSCAASGFTFYPNAMGWYRQAPGKERELVASINSDGSTNYADSVKGRFTISRDNAKNTVYLPMNSLIPEDTAVYYCAAGYFWGRIKYYYWVQGTQVTVSS”, for which the “polyreactivity (PSR sort gate)” value is recorded as “high polyreactivity”.

On to “QVQLVESGGGLDQAGGSLGLSCAASGFTFTGYTMGWYRQAPGKERELVATISGSGGNTYYADSVKGRFTISRDNAKNTVYLQMNSLKPEETAVYYCARRRSGPRVLYYYWGQGTQVTVSS”, for which the “polyreactivity (PSR sort gate)” value is given as “low polyreactivity”.

Take “QVQLVESGGGLDQAGGSLPLSCAASGITSYVYAMRWYRQAPGKERELVASISWTGGNTYADSVKGRFTISRDNAKNTVYLPMNSLKPEDTAVYYCNAGRSWDYWYGYDYWGQGTQVTVSS”: the “polyreactivity (PSR sort gate)” value is given as “low polyreactivity”.

Consider “QVQLVESGGGLDQAGGSLRLICAASGSIFNGNAMGWYRQAPGKQRDLVAAITRRGGSTYYADSVKVRFTISRDNAKNTVYLQMNSLKPEDTAVYYCAAEDWLYKRPYKERIVQFYYWGQGTQVTVSS”, for which the “polyreactivity (PSR sort gate)” value is “low polyreactivity”.

As for “QVQLVESGGGLDQAGGSLRLSCAASALIFSSYAMGWYRQAPGKERELVAAITGSGGRTYYADSVKGRFTISRDNAKNTVYLQMNSLKPEDTAVYYCAAKYPAPRYYTGYDYWGQGTQVTVSS”, the “polyreactivity (PSR sort gate)” value is recorded as “high polyreactivity”.

As to “QVQLVESGGGLDQAGGSLRLSCAASGFIFFRYAMGWYRQAPRKEREMVAAISSSGGSTYYADSVKGRFTISRDNAKNTVYLQMNSLKPEDTAVYFCAAPRYPIFVGLGKDYWGQGTQVTVSS”, the “polyreactivity (PSR sort gate)” value is on record as “high polyreactivity”.

As for “QVQLVESGGGLDQAGGSLRLSCAASGFIFRYYTMGWYRQAPGKERELFATITSGGSTYYADSVKGRFTISRDNAKNTVYLQMNSLKPEDTAVYYCAKYHSLRRQYSKFRPTFDYWGQGTQVTVSS”, the “polyreactivity (PSR sort gate)” value is reported as “high polyreactivity”.

“QVQLVESGGGLDQAGGSLRLSCAASGFILGDYAMGWYRQAPGKERELVAAITSSGGSTYYADSVKGRFTISRDNAKNTVYFQMNSLKPEDTAVYYCNTVYVYGPEYDYWGQGTQVTVSS”: the “polyreactivity (PSR sort gate)” value is “high polyreactivity”.

As for “QVQLVESGGGLDQAGGSLRLSCAASGFIYSWYAMGWYRQAPGKERELVAAISSSGVSTYYADSVKGRFTISRDNAKNTVYLQMNSLKPEDTAVYYCNAYGSVWDRGEYDYEYWGQGTQVTVSS”, the “polyreactivity (PSR sort gate)” value is given as “low polyreactivity”.

For “QVQLVESGGGLDQAGGSLRLSCAASGFTFDENAMGSYRQAPGINYSGASTYYADSVKGRFTISRDNAKNTVYLQMNSLKPEDTAVYYCAAEVVAQMNYWGQGTQVTVSW”, the “polyreactivity (PSR sort gate)” value was “low polyreactivity”.

As for “QVQLVESGGGLDQAGGSLRLSCAASGFTFGYYAMGWYRQAPGKERELVATIDRGGGTSYADSVKGRFTISRDNAKNTVYLQMNSLKPEDTAVYYCNRAGYGAKARRYRSYWGQGTQVTVSS”, the “polyreactivity (PSR sort gate)” value is given as “high polyreactivity”.

With “QVQLVESGGGLDQAGGSLRLSCAASGFTFPLYAMGWYRQAPGKERELVAVISRSGGSTYYADSVKGRFTISRDNAKNTVYLQMNSLTPEDTAVYYCAARLVPRSPERGNYDYWGQGTQVTVSS”, the “polyreactivity (PSR sort gate)” value is “high polyreactivity”.

With “QVQLVESGGGLDQAGGSLRLSCAASGFTFPRYAMGWYRQAPGKERELVAAITLIGGSTYYADSVKGRFTISRDNAKNTVYLQMNSLKPEDTAVYYCAATDRKVGVYHSYYYWGQGTQVTVSS”, the “polyreactivity (PSR sort gate)” value is reported as “low polyreactivity”.

Consider “QVQLVESGGGLDQAGGSLRLSCAASGFTFRRYAMGWYSQAPGKEREFVAAITTRGSNTYYADSVKGRFTISRDNAKNTVYLQMNSLKPEDTAVYYCAASYYPPGHYDYWGQGTQVTVSS”, for which the “polyreactivity (PSR sort gate)” value was “high polyreactivity”.

With “QVQLVESGGGLDQAGGSLRLSCAASGFTFTAYDMGWYRQAPGKVRELVAAINWSGSRTYYADSVKGRFTISRDNAKNTVYLQMNSLKPEDTAVYYCNTATSKSSYLHYDYWGQGTQVTVSS”, the “polyreactivity (PSR sort gate)” value is reported as “high polyreactivity”.

For the sequence “QVQLVESGGGLDQAGGSLRLSCAASGFTFYSYVMGWYRQAPGKERELVAAITRGGSTYYADSVKGRFTISRDNAKNTVYLQMNSMKPDDTAVYYCAKRPSYGFNYWGQGTQVTVSS”, the “polyreactivity (PSR sort gate)” value is on record as “low polyreactivity”.

For the sequence “QVQLVESGGGLDQAGGSLRLSCAASGFTFYVYTMGWYRQAPGKERELVARITSRAGRTYYADSVKGRFTISRDNAKNTVYLQMNSLKPEDTAVYYCNTRDFSGYVHALSLYDYWGQGTQVTVSS”, the “polyreactivity (PSR sort gate)” value was “high polyreactivity”.
